# Test results taken from article PMC5359885.
# Assays:
# [1] = molecular target: Spectrin (Homo sapiens) (UniProt P02549); details: cited from earlier work
# [2] = molecular target: purified human spectrin (Sigma) (human) (UniProt P02549); test: ELISA; spectrin coated on the plate; serially diluted His-tagged protein in PBS, overnight at 4 °C; detected with anti-His tag antibody; Scatchard analysis
# [3] = molecular target: F-actin (G-actin from Cytoskeleton polymerized to F-actin) (UniProt P68135); test: co-sedimentation; Actin Binding Protein Spin-Down Assay kit; F-actin (7 μM) incubated with His-tagged protein (SURFIN4.2^WRD2-His 12.5 to 0.0 μM; His control 7.0 μM; Pf332^WRD 4.2 μM) at room temperature 30 min; 150,000×g 1.5 h at 24 °C; Western blot of supernatant and pellet, densitometry, one-site specific binding model
# Chain of UniProt P02549 (P02549 whole entry, chain 1 of 2): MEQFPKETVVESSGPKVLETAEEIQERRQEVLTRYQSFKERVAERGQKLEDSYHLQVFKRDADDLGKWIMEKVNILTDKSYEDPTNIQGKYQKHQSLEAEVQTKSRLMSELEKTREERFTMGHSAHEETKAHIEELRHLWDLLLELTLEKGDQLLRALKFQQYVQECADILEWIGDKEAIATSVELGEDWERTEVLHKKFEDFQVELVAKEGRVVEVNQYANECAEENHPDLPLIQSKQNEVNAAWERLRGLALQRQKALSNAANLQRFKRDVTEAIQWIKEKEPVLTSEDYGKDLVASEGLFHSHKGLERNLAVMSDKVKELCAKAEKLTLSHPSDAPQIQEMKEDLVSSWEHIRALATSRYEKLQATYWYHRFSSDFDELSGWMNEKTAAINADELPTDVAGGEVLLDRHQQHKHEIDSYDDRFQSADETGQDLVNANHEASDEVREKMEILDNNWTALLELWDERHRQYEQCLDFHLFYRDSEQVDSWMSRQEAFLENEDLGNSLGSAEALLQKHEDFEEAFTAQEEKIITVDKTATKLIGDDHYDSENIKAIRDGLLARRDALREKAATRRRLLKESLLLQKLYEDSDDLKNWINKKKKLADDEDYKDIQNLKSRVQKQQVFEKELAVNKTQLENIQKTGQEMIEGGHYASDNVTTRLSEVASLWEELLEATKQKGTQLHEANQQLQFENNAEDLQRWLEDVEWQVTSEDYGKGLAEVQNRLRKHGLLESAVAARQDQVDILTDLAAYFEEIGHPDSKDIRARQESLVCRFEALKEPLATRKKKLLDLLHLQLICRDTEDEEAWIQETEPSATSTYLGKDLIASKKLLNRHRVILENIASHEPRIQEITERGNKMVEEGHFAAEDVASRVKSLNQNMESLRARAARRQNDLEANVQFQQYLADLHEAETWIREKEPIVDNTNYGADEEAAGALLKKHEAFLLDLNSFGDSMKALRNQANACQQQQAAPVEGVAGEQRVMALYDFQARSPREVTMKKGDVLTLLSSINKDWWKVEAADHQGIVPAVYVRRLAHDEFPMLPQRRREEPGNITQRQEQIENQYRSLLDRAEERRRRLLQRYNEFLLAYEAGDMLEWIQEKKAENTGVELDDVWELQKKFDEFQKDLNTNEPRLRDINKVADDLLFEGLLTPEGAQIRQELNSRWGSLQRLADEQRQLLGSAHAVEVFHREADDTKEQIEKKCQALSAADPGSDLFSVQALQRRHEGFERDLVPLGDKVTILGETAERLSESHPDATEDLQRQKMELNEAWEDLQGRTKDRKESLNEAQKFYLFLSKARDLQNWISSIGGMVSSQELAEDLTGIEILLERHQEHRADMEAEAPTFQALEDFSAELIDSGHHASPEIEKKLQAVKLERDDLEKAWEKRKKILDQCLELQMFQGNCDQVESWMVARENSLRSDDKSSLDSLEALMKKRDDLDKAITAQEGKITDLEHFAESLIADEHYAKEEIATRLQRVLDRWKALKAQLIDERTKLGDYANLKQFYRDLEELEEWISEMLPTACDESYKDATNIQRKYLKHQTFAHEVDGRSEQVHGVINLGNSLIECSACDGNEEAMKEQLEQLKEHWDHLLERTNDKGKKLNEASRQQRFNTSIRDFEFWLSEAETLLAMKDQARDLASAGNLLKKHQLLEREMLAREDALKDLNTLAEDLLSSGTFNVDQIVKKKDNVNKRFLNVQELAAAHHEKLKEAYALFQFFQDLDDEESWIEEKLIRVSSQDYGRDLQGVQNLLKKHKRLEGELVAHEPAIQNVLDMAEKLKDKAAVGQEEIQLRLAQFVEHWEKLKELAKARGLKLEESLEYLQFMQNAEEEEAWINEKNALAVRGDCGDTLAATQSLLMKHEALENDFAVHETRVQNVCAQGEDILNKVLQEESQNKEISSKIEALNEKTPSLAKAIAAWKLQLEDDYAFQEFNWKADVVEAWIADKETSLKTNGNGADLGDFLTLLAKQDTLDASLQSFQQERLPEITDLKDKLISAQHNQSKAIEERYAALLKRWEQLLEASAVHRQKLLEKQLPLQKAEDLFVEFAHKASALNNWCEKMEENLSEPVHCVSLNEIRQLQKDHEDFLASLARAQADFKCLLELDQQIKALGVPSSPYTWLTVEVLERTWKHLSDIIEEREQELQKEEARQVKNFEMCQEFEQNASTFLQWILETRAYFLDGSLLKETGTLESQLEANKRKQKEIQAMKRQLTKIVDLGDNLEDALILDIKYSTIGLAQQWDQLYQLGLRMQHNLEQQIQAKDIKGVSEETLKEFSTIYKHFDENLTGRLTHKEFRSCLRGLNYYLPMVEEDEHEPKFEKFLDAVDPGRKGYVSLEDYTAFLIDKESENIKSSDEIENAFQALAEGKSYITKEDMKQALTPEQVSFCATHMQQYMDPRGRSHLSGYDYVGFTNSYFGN
# Chain of UniProt P02549 (P11277 2-2137, chain 2 of 2, further chain): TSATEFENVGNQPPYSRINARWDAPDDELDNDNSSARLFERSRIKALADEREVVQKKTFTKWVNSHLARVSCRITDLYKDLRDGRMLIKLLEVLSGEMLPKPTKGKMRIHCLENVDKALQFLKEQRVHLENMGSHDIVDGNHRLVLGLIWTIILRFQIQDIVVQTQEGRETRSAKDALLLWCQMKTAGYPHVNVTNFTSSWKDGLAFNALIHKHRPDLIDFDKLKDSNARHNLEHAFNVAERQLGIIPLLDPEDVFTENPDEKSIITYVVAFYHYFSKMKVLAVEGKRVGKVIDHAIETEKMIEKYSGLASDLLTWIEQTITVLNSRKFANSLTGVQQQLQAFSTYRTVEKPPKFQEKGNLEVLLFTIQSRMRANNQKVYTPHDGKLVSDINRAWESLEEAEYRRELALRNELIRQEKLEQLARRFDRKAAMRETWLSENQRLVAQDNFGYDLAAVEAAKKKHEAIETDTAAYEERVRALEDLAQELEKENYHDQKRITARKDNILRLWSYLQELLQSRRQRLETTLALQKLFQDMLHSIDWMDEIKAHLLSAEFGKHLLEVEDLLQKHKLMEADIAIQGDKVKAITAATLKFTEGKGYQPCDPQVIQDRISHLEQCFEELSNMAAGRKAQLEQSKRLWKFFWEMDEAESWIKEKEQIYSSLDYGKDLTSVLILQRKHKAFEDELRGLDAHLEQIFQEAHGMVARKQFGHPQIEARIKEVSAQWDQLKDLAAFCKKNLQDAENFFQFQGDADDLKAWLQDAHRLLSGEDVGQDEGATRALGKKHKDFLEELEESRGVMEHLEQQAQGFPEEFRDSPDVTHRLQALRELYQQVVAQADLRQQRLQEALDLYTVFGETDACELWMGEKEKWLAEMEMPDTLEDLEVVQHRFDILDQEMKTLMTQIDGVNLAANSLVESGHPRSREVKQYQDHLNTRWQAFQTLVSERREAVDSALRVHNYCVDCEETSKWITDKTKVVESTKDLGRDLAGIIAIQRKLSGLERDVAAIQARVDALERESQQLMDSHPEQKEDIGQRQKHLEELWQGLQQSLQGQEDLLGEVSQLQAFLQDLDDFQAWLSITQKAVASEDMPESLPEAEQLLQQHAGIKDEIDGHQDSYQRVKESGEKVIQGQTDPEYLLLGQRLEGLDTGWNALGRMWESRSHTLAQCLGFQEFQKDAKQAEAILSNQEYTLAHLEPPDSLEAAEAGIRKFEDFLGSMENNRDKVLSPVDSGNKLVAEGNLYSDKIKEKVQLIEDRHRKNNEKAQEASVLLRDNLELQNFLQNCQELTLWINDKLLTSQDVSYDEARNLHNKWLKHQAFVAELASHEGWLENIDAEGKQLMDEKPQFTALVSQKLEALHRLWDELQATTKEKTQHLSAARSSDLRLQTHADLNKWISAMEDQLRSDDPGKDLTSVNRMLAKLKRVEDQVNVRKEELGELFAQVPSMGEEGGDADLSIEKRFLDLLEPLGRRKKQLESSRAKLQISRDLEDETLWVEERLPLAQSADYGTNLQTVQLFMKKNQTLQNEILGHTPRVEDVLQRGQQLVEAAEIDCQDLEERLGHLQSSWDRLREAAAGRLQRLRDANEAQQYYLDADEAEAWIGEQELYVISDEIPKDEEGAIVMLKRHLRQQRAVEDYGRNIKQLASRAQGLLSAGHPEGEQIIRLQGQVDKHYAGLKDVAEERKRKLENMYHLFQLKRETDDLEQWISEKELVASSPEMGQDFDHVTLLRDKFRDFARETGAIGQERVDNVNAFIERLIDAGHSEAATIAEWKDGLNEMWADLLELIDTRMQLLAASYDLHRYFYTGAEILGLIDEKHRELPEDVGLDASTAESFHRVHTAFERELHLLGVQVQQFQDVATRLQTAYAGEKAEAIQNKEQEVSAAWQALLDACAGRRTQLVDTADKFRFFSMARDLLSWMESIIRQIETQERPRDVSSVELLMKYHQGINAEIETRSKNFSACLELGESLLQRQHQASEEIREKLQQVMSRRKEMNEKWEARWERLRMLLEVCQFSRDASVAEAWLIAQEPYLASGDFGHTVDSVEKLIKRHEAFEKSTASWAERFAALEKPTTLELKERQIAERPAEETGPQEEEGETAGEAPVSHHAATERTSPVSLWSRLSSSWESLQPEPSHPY
substance,measurement,setting,value
RESA (from UniProt P13830),Kd,[1],880 nM
"His-tagged recombinant SURFIN4.2 WRD2 (second tryptophan-rich domain of SURFIN4.2, amino acids 1349-1567), expressed in E. coli (domain or fragment)",Kd,[2],510 nM
same,Kd,[3],5160 nM
